Consider 56 variants from the RNAGym collection of RNA variant scans (doi:10.7554/elife.90254).

The chains are these.
B1: LINE1-mini (parent)
chain: GGCAGAGCUCAACACAGCGUGGCAAAGUGGCUGUGGCUAGACUGCC

The variants in this series derive from B1. The series can be described thus: self-cleavage, relative activity (ratio to wild type); higher = more cleavage; in vitro, sequencing; the parent is a self-cleaving ribozyme.
Take GGAAGAGCUCAACACAGCUUGGCAAAGUGGCUGUGGCUAGACUGCC: the self-cleavage was 0.24. GGAAGAGCUCAACACAGCCUGGCAAAGUGGCUGUGGCUAGACUGCC: the self-cleavage is 0.18. Regarding GGAAGAGCUCAACACAGCAUGGCAAAGUGGCUGUGGCUAGACUGCC, the self-cleavage worked out at 0.61. Regarding GGAAGAGCUCAACACAGCGUGGCAAAGUGGCUGUGGCUAGAGUGCC, the self-cleavage stood at 0.08. The value for GGAAGAGCUCAACACAGCGUGGCAAAGUGGCUGUGGCUAGAUUGCC was 0.26; that for GGAAGAGCUCAACACAGCGUGGCAAAGUGGCUGUGGCUAGAAUGCC was 0.33; that for GGAAGAGCUCAACACAGCGUGGCAAACUGGCUGUGGCUAGACUGCC was 0.24. As for GGAAGAGCUCAACACAGCGUGGCAAAAUGGCUGUGGCUAGACUGCC, the self-cleavage stood at 0.31. The value for GGAAGAGCUCAACACAGCGUGGCAAAUUGGCUGUGGCUAGACUGCC was 0.62; that for GGAAGAGCUCAACACAGCGUGGCAAAGUCGCUGUGGCUAGACUGCC was 0.25.

Regarding GGAAGAGCUCAACACAGCGUGGCAAAGUAGCUGUGGCUAGACUGCC, the self-cleavage turned out to be 0.51. The value for GUCAGAGCUCAACACAGCGCGGCAAAGUGGCUGUGGCUAGACUGCC was 0.05; that for GUCAGAGCUCAACACAGCGGGGCAAAGUGGCUGUGGCUAGACUGCC was 0.05; that for GUCAGAGCUCAACACAGCGAGGCAAAGUGGCUGUGGCUAGACUGCC was 0.07. Take GGAAGAGCUCAACACAGCGUGGCAAAGUGGCUGUGGCUAGCCUGCC: the self-cleavage was determined as 0.15.

Consider GGAAGAGCUCAACACAGCGUGGCAAAGUGGCUGUGGCUAGGCUGCC, for which the self-cleavage worked out at 0.22. Under GGAAGAGCUCAACACAGCGUGGCAAAGUGGCUGUGGCUAGUCUGCC stands 0.32; under GGAAGUGCUCAACACAGCGUGGCAAAGUGGCUGUGGCUAGACUGCC, 0.76; under GGAAGGGCUCAACACAGCGUGGCAAAGUGGCUGUGGCUAGACUGCC, 0.2. The value for GGAAGCGCUCAACACAGCGUGGCAAAGUGGCUGUGGCUAGACUGCC was 0.38; that for GGACGAGCUCAACACAGCGUGGCAAAGUGGCUGUGGCUAGACUGCC was 0.25; that for GGAGGAGCUCAACACAGCGUGGCAAAGUGGCUGUGGCUAGACUGCC was 0.17. Under GGAUGAGCUCAACACAGCGUGGCAAAGUGGCUGUGGCUAGACUGCC stands 0.38. Take GGAAGAGCUCAACACAGUGUGGCAAAGUGGCUGUGGCUAGACUGCC: the self-cleavage was 0.49. Under GGAAGAGCUCAACACAGAGUGGCAAAGUGGCUGUGGCUAGACUGCC stands 0.18; under GGAAGAGCUCAACACAGGGUGGCAAAGUGGCUGUGGCUAGACUGCC, 0.2; under GGAAGAGCUCAACACAGCGUGGCAAAGUGGCUGUGGCUAGACUGCU, 0.41. Under GGAAGAGCUCAACACAGCGUGGCAAAGUGGCUGUGGCUAGACUGCA stands 0.4; under GGAAGAGCUCAACACAGCGUGGCAAAGUGGCUGUGGCUAGACUGCG, 0.29. The value for GGAAGAGCUCAACACAGCGUCGCAAAGUGGCUGUGGCUAGACUGCC was 0.23; that for GGAAGAGCUCAACACAGCGUAGCAAAGUGGCUGUGGCUAGACUGCC was 1.23. As for GGAAGAGCUCAACACAGCGUUGCAAAGUGGCUGUGGCUAGACUGCC, the self-cleavage is 0.47.

Consider GGAAGAUCUCAACACAGCGUGGCAAAGUGGCUGUGGCUAGACUGCC, for which the self-cleavage stood at 0.4. With GGAAGAACUCAACACAGCGUGGCAAAGUGGCUGUGGCUAGACUGCC, the self-cleavage turned out to be 0.97. Under GGAAGACCUCAACACAGCGUGGCAAAGUGGCUGUGGCUAGACUGCC stands 0.13; under GGAAGAGCUCAACACGGCGUGGCAAAGUGGCUGUGGCUAGACUGCC, 0.22. The value for GGAAGAGCUCAACACUGCGUGGCAAAGUGGCUGUGGCUAGACUGCC was 0.13; that for GGAAGAGCUCAACACCGCGUGGCAAAGUGGCUGUGGCUAGACUGCC was 0.12. The value for GGAAGAGCUCUACACAGCGUGGCAAAGUGGCUGUGGCUAGACUGCC was 0.06; that for GGAAGAGCUCGACACAGCGUGGCAAAGUGGCUGUGGCUAGACUGCC was 0.06; that for GGAAGAGCUCCACACAGCGUGGCAAAGUGGCUGUGGCUAGACUGCC was 0.04. For the variant GUCAGAGCUCAACACAGCGUGGCAAAGUGGCGGUGGCUAGACUGCC, the self-cleavage was 0.03. The value for GUCAGAGCUCAACACAGCGUGGCAAAGUGGCAGUGGCUAGACUGCC was 0.03; that for GUCAGAGCUCAACACAGCGUGGCAAAGUGGCCGUGGCUAGACUGCC was 0.03. The value for GUCAGAGCUCAACACAGCGUGGCAAAGAGGCUGUGGCUAGACUGCC was 0.07; that for GUCAGAGCUCAACACAGCGUGGCAAAGGGGCUGUGGCUAGACUGCC was 0.04; that for GUCAGAGCUCAACACAGCGUGGCAAAGCGGCUGUGGCUAGACUGCC was 0.06. Under GGAAGAGCUCAACACAGCGUGGCAUAGUGGCUGUGGCUAGACUGCC stands 0.79. Take GGAAGAGCUCAACACAGCGUGGCACAGUGGCUGUGGCUAGACUGCC: the self-cleavage is 0.41.

For GGAAGAGCUCAACACAGCGUGGCAGAGUGGCUGUGGCUAGACUGCC, the self-cleavage was 0.29.

In the case of GGAAGAGCUCAACACAGCGUGGCAAAGUGGCUGUGGCUUGACUGCC, the self-cleavage came to 0.48. With GGAAGAGCUCAACACAGCGUGGCAAAGUGGCUGUGGCUGGACUGCC, the self-cleavage turned out to be 0.57.

For the variant GGAAGAGCUCAACACAGCGUGGCAAAGUGGCUGUGGCUCGACUGCC, the self-cleavage is 0.11. As for GGAAGAGCUCAACACAGCGUGGCUAAGUGGCUGUGGCUAGACUGCC, the self-cleavage amounted to 0.51. For the variant GGAAGAGCUCAACACAGCGUGGCGAAGUGGCUGUGGCUAGACUGCC, the self-cleavage was determined as 0.78.

Turning to GGAAGAGCUCAACACAGCGUGGCCAAGUGGCUGUGGCUAGACUGCC, the self-cleavage was determined as 0.27.
